# Experiment: soluble on expression in E. coli; label from the status in PepcDB or PDB records
row,Sequence,soluble on expression in E. coli
1,MQPFDSRQADEVATLLALAEHGSFAAAGRALQRHPSVLSKRLGALERRLGIRLVERTTRQLRFTDEGERLASRFRQAVDLLDEAEHEASLGAAQLRGRLRIALPSAMGRLWLGPLLAEFALAHPQVVLETDYSERFVDIIAEGFDLAIRVGELADSRLVARRLCAHRRILGAAPDYLKRHGVPRIPADLAAHNCLGFSGLHSYPEWKLTRQDEQQPVRVRGSMVSNDNEALLCAARQGLGIFAAGEWLMSRDLEAGRLVRVLPEWKLDADAGVYLVRPSARYATAAASAFRQWVEARFAAGPPWQRQRA,not soluble
2,MQPTPTQRPEAIVHDEKAQLDFARDMSYGDYLHLDELLGAQHPLSPEHNEMLFIVQHQTSELWMKLMLHELRAAIAAIQQDRLQPAFKMLARVSKILEQLVSAWDVLATMTPPEYSALRPYLAHSSGFQSYQYRQIEYLLGNKNAAMLQPHAHRADLLAQVRAAFEAPSLYDEALRFLARSGLAVPAGALQRDWTQPYRADDQVEQAWLTVYRQSERYWNQYQLGEKLTDLEDAFRLWRFRHVTTVERIIGFKRGTGGTSGVTYLRKMLEVVLFPEIWKLRTDLLEHHHHHH,not soluble
3,MQQERTVKVSKYLSKHLRHQPERIGLTPDEGGWVEIDALVAAAAAHGFPFTRQELDHVVATNDKRRFAVEGTRIRASQGHSIAVDLRLPVATPPPYLYHGTVARHLEAIRAEGLRPMNRHDVHLSPDRETATRVGARRGRPVVLPVDAATMHRDGHVFHVSANGVWLTQHVPSRYLRFPAPHLEHHHHHH,not soluble
4,MQQPINYIMNIMHLERDLKRLTSNWSSATGLSLNELRILVYVEQHPGIQIGDVANALNVAKASLAQNIGTLITQGWLKSQPIKQDRRLRVLTLTKAGQDRMKDVDAQLTKSLDTTPATQLADQLSALQL,not soluble
5,MQRFVFGGKLWKFNETFGCYDDYPHVAPFLAVEHFASFPVHPPTFIFSNAAVSNILSMEEIKSVLIRLDELISSNNLHNHPCLISQAGAQATMRLASKDQLRSDWNTSVEIPFCLYVTQNGVCPRQFDYEDLHKQSQWVALFEEVILPLDKMQGSKLSKIAPHQHSSVVKNAIMKSKREKKTSCKKHSKSISGIDSSSSGCNSL,not soluble
6,MQRIELLPLVLDNQTFFQNCPDIIPRIIPFSPCLDGSEVNFICGPLHTGKTSFLRQVAGSLQGLKVYINFEDSRFRDLKPETLQEIKEIAAEYCIKGPEDEEGLAGKDIDDKERPEVPVSYFLDEIHYLPGWGDRVYSLQNDGARVFVTSSSAGIISKEISSRFADGIKIIRLLPFSFKEYLTLKGLRVPRPNFLTPSRCDEMLCLFLQYFENGGFPEIIKSGDFRLSRKYFEETLQKEIIERHTIQDPEGLKKLAVFLISNMASEYSIDTLKRAGGIKDEATVRNYLDYLEEAFLLYRVPMFRHKSEKPDYGKEGENENERESNIPCKVYAGDTGFFKSVFPRYPDSLGLRFENLVFLELLRKGKQVYYFHNTRECDFLIAEKESQKVTAAVQVCLCFGGTAVREREVLGLMEAMEEFGLNEGLILTMDDEEVMEIEGKDGENKRIIINSVWKWMLELEHHHHHH,not soluble
7,MQRRLERFDAKLVQSGLDALLVTGQNNIYYLTDFWGTNATVFITKNRRLFLTDSRYTLIAKQSVHGFDIIESKDPLKDIVKFVEVDKLETIGFDNQVSFAYYQALQAIFEGYTLSPQTNFMEELRMIK,soluble
8,MQRVDLNSDLGESFGAYTIGQDDRVLEHVTSANIACGYHAGDHNVMARTVKLAADKGMGIGAHPGFPDLLGFGRRNIQTDHKDIYNFIVYQVAALNGFCQLHRVRMQHVKPHGALYNMAAKDRVIAEAIAEAIYDIDPSLILFGLSGSELIKAGKKLGLTVANEVFADRTYQPDGTLTPRSEANALIKESERATEQVIQMVKESKVIAVDGSHIPIEADTICVHGDSPTALSFIERLHAQLQVEGVTVTKVSDFLFKLEHHHHHH,not soluble
9,MQSPPHDPASALAIRNHYRQSQSRAARLRLLVDTGQELIQLPPEAMRKCVLQRACAFVAMDHGLLLEWGADNGVQTTARHGSKERLSTLETTADPLAIGPQWLERPGTHLPCVLLLPLRGADEGSFGTLVLANSVAISAPDGEDIESLQLLATLLAAHLENNRLLEALVARDRT,not soluble
10,MQTEHVILLNAQGVPTGTLEKYAAHTADTRLHLAFSSWLFNAKGQLLVTRRALSKKAWPGVWTNSVCGHPQLGESNEDAVIRRCRYELGVEITPPESIYPDFRARATDPSGIVENEVCPVFAARTTSALQINDDEVMDYQWCDLADVLHGIDATPWAFSPWMVMQATNREARKRLSAFTQLKLEHHHHHH,soluble
11,MQTLQEILQQPELENKLLNQAKTVGFVTAMACCPNVLPPEEWLPFLWGGEEIAPFSDPIQLENYFEHIIALWNETRSQLLEGNWQWPTGYLLDEAEIVNQEVRDFCEGMLQGWQLARDDWEVLMPENSSDNTLLGGVLLSLSMLYDPETSIATLYEQGFTGLEQFAEIYHAIPVMLCGITQRGVTLAEAQ,not soluble
12,MQTLTVVGLGRLGRSLGRLAADSGAYRLLDLMGRRAQPLAEGRDFVGAGRPVSEMRQLAPADLYLLAVPDAAIASCARGLAAAGVAPAGSVVFHASGVGDASLLRPLAEQGVLTASLHPAFSFADPKRAVEGFAGTLCALEGDEQACLRLEAFARALGGRPFRLAPGGKAAYHAGLSVASNFLVALTAMAGQLTARAGVPPELARQLLGGLMRQTLDNALELGPYDALTGPILRGDIGTVERHLEVLADTGLISAYRTLGRQVVELAGERLQEPARQQLLALLYLEHHHHHH,soluble
13,MQVIRKPTRMLSGVTIVSIMTHPHSCPHGKCVFCPGGVDVDTPQSYYGREPTLMRAIENDYDPFHQVQSRLRQYVENGHTPSKVELIIMGGTFLSLPIDYQDWFVTYALEAMNRFPSYDKPSFVYLEDAQVKNEKAEVRCVGMTIETKPDWAKEWHADQMLRLGATKVELGVQTVYDDILKFTNRGHTVKDSIESTRILKDSGFKVVYHVMLGLPKSDPDKDLEAFKTIFSDPNFRPDMLKIYPTLVVETAPLANLWRRGLYKPYGTETLIELISEMYRYIPKWVRVMRIQRDIPANVILDGNKKGNLRELVEKKVLEKGIKINEIRFREVGMMWQHRGLLPDHTKIHLYKEVYEASEGTEIFLSFEDEKEILIGYLRLRITSNKAHRKEIDGKTAIVRELHVYGIEVPIGSWDELGFQHRGYGSKLLSEAEKIAREEFDMRKISVLSGIGAREYYAKRGYVKEGPYMSKQLI,not soluble
14,MQVTYKGRPIRITPDFSPETMKARRAWTDVIQTLREHKCQPRLLYPAKLSITIDGETKVFHDKTKFTQYLSTNPALQRIITEKKQYKD,soluble
15,MRAASTSKPVGAHEETGHLGGAHSTYVSSAQVTNAEHENELQVVDLPRAPPSLSKAVTYFYITGFGRFALMEDNPTERVVLRLREILQDPGRVQMLHERLVRIVDLRILEVSAAAAHETLAEMKTQCLQMRQKPNISSDGRNRTVCFLHLGVDASADGFLVERSAVNEALFRFPDERGWQPTTPIPIVRGAQLGARYELDGEALASLCERTESLLNEWGRTNWTVRVNDDAGRFLCNYLFYLSAFEGLAENGHHLWQTFFLHCPMETVAPLDVQVDVVLAFMVAVAQSNAQQGPLEGILAR,soluble
16,MRAELNQGLIDFLKASPTPFHATASLARRLEAAGYRRLDERDAWHTETGGRYYVTRNDSSLIAIRLGRRSPLESGFRLVGAHTDSPCLRVKPNPEIARNGFLQLGVEVYGGALFAPWFDRDLSLAGRVTFRANGKLESRLVDFRKAIAVIPNLAIHLNRAANEGWPINAQNELPPIIAQLAPGEAADFRLLLDEQLLREHGITADVVLDYELSFYDTQSAAVVGLNDEFIAGARLDNLLSCHAGLEALLNAEGDENCILVCTDHEEVGSCSHCGADGPFLEQVLRRLLPEGDAFSRAIQRSLLVSADNAHGVHPNYADRHDANHGPALNGGPVIKINSNQRYATNSETAGFFRHLCQDSEVPVQSFVTRSDMGCGSTIGPITASQVGVRTVDIGLPTFAMHSIRELAGSHDLAHLVKVLGAFYASSELP,not soluble
17,MRALALDVGLKRIGVALCIDKKIALPLDAVLRKNRNQAANEIKNLLKIHEISLLIVGIPKGGSSEEEMTRRIKHFVSLLEFDKEICFVDESGTSKEALGYGVANTRKKDGKLDSLSAFIMIKDYFALLEHHHHHH,not soluble
18,MRALREKTSMSQGVEFNRLMLDMRAMQMDAMSAPKPVSGAQEAGASSFADMLGQAVNKVAQTQQASSQLANAFEVGKSGIDLTDVMISSQKASVSFQALTQVRNKLVQAYQDIMQMPV,not soluble
19,MRALRLLTRQEYQNTVNDLLGLSENLVHLLPEENRVDGFDNNVATNLVTSIRLEAFLTQAEALAAKAVQQNWNALLPCTQQDLEHHHHHH,not soluble
20,MRAVIPYKKAGAKSRLSPVLSLQEREEFVELMLNQVISSLKGAGIEQVDILSPSVYGLEEMTEARVLLDEKDLNEALNRYLKEAEEPVLIVMADLPLLSPEHIKEISSTEKDVCIVPGKGGGTNALFIKNPSKYRVKYYGSSFLTHCSIATDSGQDFEIYDSFMAGTDIDEPEDLVELLIHGKGAAKDYIESKFRLEVKKGRVGLVPL,soluble
21,MRAVRLVEIGKPLSLQEIGVPKPKGPQVLIKVEAAGVCHSDVHMRQGRFGNLRIVEDLGVKLPVTLGHEIAGKIEEVGDEVVGYSKGDLVAVNPLQGEGNCYYCRIGEEHLCDSPRWLGINFDGAYAEYVIVPHYKYMYKLRRLNAVEAAPLTCSGITTYRAVRKASLDPTKTLLVVGAGGGLGTMAVQIAKAVSGATIIGVDVREEAVEAAKRAGADYVINASMQDPLAEIRRITESKGVDAVIDLNYSEKTLSVYPKALAKQGKYVMVGLFGADLHYHAPLITLSEIQFVGSLVGNQSDFLGIMRLAEAGKVKPMITKTMKLEEANEAIDNLENFKAIGRQVLIP,soluble
22,MRDLYPLTRRRLLTAMALSPLLWQMNTAQAAAIDPRRIVALEWLPVELLLALGITPYGVADVPNYKLWVSEPPLPDSVIDVGLRTEPNLELLTEMKPSFMVWSAGYGPSPEKLARIAPGRGFDFSDGKKPLAVARRSLVELAQTLNLEAAAEKHLAQYDRFIASQKPHFIRRGGRPLLMTTLIDPRHMLVLGPNCLFQEVLDEYGIVNAWQGETNFWGSTAVSIDRLAMYKEADVICFDHGNNTDMNALMATPLWQAMPFVRAGRFHRVPAVWFYGATLSTMHFVRILNNVLGGKA,not soluble
23,MRDRLLAAEKVKAIDWRDDALYLLDQRVLPFEEVWHRYTTAAGVAEAIRTMVVRGAPAIGISAAYGAVLGARARIAEGGDWYPALEEDMQLLADSRPTAVNLFWALNRIRDRLMRVKNGDNPLAALEAEAVAIHLSDREANLTMAQLGADLIRKHQGNLQTVLTHCNTGALATGGFGTALGVIRAAHLEGMIERVYADETRPWLQGSRLTAWELANEGIPVTLNADSAAAHLMRTKGITWVIVGADRITANGDVANKIGTYQLAVAAMHHGVRFMVVAPSSTIDMEMASGDDIIIEERDGRELLEVGGQRVGADVEAFNPVFDVTPADLIDAIVTEKGIVERPDTARMAQLMSRKHLHLEHHHHHH,soluble
24,MREPGFWHRPPSLVSRLLLPIAAIYGNIAAARMQKAGTTVGVPVLCVGNYHMGGAGKTPTTLALVALLREFGETPVVLSRGYGGRLQGPVQVDPSRHSAADIGDEPLMMARRVPVVVARDRTDGAALACALGATVILMDDGFQNPALTKDASLIVVDSHRSIGNGSVFPAGPLRAPLPLQVARTDALVVVGDGTAADGLAQQITTKGGVVLRARLVPEPASVEALRGRRVLAFAGIGDPARFVATLRDSGVEVVEQRAFADHHPFTAEELAELAAAAKRDGLTLVTTEKDLARIGGAQQALGVEIVPFAVTLAFGDEAKLRLFLLDRLNGARAAKLAGRRMAGDPLEHHHHHH,not soluble

# — the DeepSol protein solubility set
